In article PMC6914384 (Nature, 2018):
No end group written: not given here.

T1: p300 BRP module (bromodomain-RING-PHD), residues 1048-1282 (UniProt Q09472 1048-1282)
T1 sequence: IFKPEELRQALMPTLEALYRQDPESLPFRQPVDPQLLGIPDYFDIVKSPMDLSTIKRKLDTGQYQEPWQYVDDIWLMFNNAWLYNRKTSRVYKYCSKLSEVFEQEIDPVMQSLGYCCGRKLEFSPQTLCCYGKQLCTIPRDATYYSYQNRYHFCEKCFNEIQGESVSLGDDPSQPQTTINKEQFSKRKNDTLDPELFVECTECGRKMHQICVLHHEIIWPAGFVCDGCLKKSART

T2: p300 BPΔR module (BRP 1048-1282 with the RING domain 1169-1241 replaced by a single glycine) (UniProt Q09472)
T2 chain: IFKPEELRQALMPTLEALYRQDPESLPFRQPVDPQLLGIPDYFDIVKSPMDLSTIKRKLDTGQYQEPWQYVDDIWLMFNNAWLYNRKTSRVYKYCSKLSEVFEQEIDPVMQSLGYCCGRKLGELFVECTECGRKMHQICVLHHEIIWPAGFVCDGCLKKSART


Legend:
[1] = molecular target: T1, p300 BRP module (bromodomain-RING-PHD), …; test: ITC
[2] = molecular target: T2, p300 BPΔR module (BRP 1048-1282 with …); test: crystal structure

Binder | Kd [1] [mM] | stoichiometry N [1] | binding result [2]
ARTKQTQRKSTGGK(Ac)APRKQL [H3 K14ac (1-20) peptide] | 1.76 | 1.13 | 
GLGK(Ac)GGAK(Ac)RHR [11-mer histone peptide H4 (10-20) with acetylated K12 and K16] |  |  | binds
ARTKQTQRK(Ac)STGGK(Ac)APRKQL [H3 K9acK14ac (1-20) peptide] | 0.578 | 1.06 | 
